Measured values from patent US20110275699.

Target: bacterially expressed USF-1, P22415
Sequence (P22415 whole entry, looked up): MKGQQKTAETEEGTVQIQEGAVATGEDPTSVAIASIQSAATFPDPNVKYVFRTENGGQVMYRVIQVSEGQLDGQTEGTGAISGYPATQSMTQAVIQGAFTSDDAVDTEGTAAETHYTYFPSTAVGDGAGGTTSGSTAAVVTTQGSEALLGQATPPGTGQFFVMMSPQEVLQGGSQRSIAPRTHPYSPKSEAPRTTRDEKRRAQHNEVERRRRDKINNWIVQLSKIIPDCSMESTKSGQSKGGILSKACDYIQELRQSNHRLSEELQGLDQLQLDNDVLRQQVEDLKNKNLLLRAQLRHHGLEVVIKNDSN

B1: P/CAF (Upstate), recombinant/purified enzyme (protein)
chain: MLEEEVYSQNSPIWDQDFLSASSRTSQLGIQTVINPPPVAGTISYNSTSSSLEQPNAGSSSPACKASSGLEANPGEKRKMTDSHVLEEAKKPRVMGDIPMELINEVMSTITDPAAMLGPETNFLSAHSARDEAARLEERRGVIEFHVVGNSLNQKPNKKILMWLVGLQNVFSHQLPRMPKEYITRLVFDPKHKTLALIKDGRVIGGICFRMFPSQGFTEIVFCAVTSNEQVKGYGTHLMNHLKEYHIKHDILNFLTYADEYAIGYFKKQGFSKEIKIPKTKYVGYIKDYEGATLMGCELNPRIPYTEFSVIIKKQKEIIKKLIERKQAQIRKVYPGLSCFKDGVRQIPIESIPGIRETGWKPSGKEKSKEPRDPDQLYSTLKSILQQVKSHQSAWPFMEPVKRTEAPGYYEVIRFPMDLKTMSERLKNRYYVSKKLFMADLQRVFTNCKEYNPPESEYYKCANILEKFFFSKIKEAGLIDK
in vitro acetylation of USF-1: USF-1 was acetylated in vitro by P/CAF (lane 3), and acetylation was not detected in the absence of P/CAF or acetyl CoA (lane 1 and 2)
